US9908919B2, “Cyclic apelin derivatives for the treatment of heart failure” (priority 2013, dated 2018)
Where a SMILES comes first, the peptide text is derived from it. Bridges are numbered along the chain shown (N, C = ends). [ ]: non-standard residue; d: D form. pGlu = O=C1CC[C@@H](C(=O)O)N1; dNle = CCCC[C@@H](N)C(=O)O

T1: human APJ receptor (hAPJ) (human, UniProt P35414 1-380)
T1 sequence (looked up): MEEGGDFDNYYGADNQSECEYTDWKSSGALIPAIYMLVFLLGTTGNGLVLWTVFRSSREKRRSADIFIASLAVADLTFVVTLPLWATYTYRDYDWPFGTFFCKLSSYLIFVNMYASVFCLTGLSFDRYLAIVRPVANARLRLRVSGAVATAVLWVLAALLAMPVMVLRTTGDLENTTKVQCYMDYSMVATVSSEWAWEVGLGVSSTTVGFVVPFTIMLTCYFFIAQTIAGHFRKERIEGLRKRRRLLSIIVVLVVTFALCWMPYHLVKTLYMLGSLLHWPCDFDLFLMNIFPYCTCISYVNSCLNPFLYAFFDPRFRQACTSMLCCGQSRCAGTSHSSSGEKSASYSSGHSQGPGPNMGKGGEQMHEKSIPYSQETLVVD

B1: Example 5: pE-R-P-R-L-C*-H-K-C*-P-Nle-P-F-OH (Disulfide C6-C9) (peptide)
peptide: ERPRLCHKCPLPF
HELM: PEPTIDE1{[Glp].R.P.R.L.C.H.K.C.P.[Nle].P.F}$PEPTIDE1,PEPTIDE1,6:R3-9:R3$$$V2.0
SMILES: CCCC[C@H](NC(=O)[C@@H]1CCCN1C(=O)[C@@H]1CSSC[C@H](NC(=O)[C@H](CC(C)C)NC(=O)[C@H](CCCNC(=N)N)NC(=O)[C@@H]2CCCN2C(=O)[C@H](CCCNC(=N)N)NC(=O)[C@@H]2CCC(=O)N2)C(=O)N[C@@H](Cc2c[nH]cn2)C(=O)N[C@@H](CCCCN)C(=O)N1)C(=O)N1CCC[C@H]1C(=O)N[C@@H](Cc1ccccc1)C(=O)O
B2: Example 1: pE-R-C*-R-L-C*-H-K-G-P-Nle-P-F-OH (Disulfide C3-C6) (peptide)
peptide: ERCRLCHKGPLPF
HELM: PEPTIDE1{[Glp].R.C.R.L.C.H.K.G.P.[Nle].P.F}$PEPTIDE1,PEPTIDE1,3:R3-6:R3$$$V2.0
SMILES: CCCC[C@H](NC(=O)[C@@H]1CCCN1C(=O)CNC(=O)[C@H](CCCCN)NC(=O)[C@H](Cc1c[nH]cn1)NC(=O)[C@@H]1CSSC[C@H](NC(=O)[C@H](CCCNC(=N)N)NC(=O)[C@@H]2CCC(=O)N2)C(=O)N[C@@H](CCCNC(=N)N)C(=O)N[C@@H](CC(C)C)C(=O)N1)C(=O)N1CCC[C@H]1C(=O)N[C@@H](Cc1ccccc1)C(=O)O
B3: Example 7: pE-R-P-R-L-(D-hC)*-H-K-C*-P-(D-Nle)-p-f-OH (peptide)
peptide: ERPRLCHKCPLPF
HELM: PEPTIDE1{[Glp].R.P.R.L.[O=C([C@@H](CCS[*:3])N[*:1])[*:2]].H.K.C.P.[CCCC[C@@H](N[*:1])C(=O)[*:2]].[dP].[dF]}$PEPTIDE1,PEPTIDE1,6:R3-9:R3$$$V2.0
SMILES: CCCC[C@@H](NC(=O)[C@@H]1CCCN1C(=O)[C@@H]1CSSCC[C@@H](NC(=O)[C@H](CC(C)C)NC(=O)[C@H](CCCNC(=N)N)NC(=O)[C@@H]2CCCN2C(=O)[C@H](CCCNC(=N)N)NC(=O)[C@@H]2CCC(=O)N2)C(=O)N[C@@H](Cc2c[nH]cn2)C(=O)N[C@@H](CCCCN)C(=O)N1)C(=O)N1CCC[C@@H]1C(=O)N[C@H](Cc1ccccc1)C(=O)O
B4: Example 2: pE-R-C*-R-L-C*-H-K-G-P-(D-Nle)-a-f-OH (Disulfide C3-C6) (peptide)
peptide: ERCRLCHKGPLAF
HELM: PEPTIDE1{[Glp].R.C.R.L.C.H.K.G.P.[CCCC[C@@H](N[*:1])C(=O)[*:2]].[dA].[dF]}$PEPTIDE1,PEPTIDE1,3:R3-6:R3$$$V2.0
SMILES: CCCC[C@@H](NC(=O)[C@@H]1CCCN1C(=O)CNC(=O)[C@H](CCCCN)NC(=O)[C@H](Cc1c[nH]cn1)NC(=O)[C@@H]1CSSC[C@H](NC(=O)[C@H](CCCNC(=N)N)NC(=O)[C@@H]2CCC(=O)N2)C(=O)N[C@@H](CCCNC(=N)N)C(=O)N[C@@H](CC(C)C)C(=O)N1)C(=O)N[C@H](C)C(=O)N[C@H](Cc1ccccc1)C(=O)O
B5: Example 6: pE-R-P-R-L-c*-H-K-C*-P-f-a-f-OH (peptide)
peptide: ERPRLCHKCPFAF
HELM: PEPTIDE1{[Glp].R.P.R.L.[dC].H.K.C.P.[dF].[dA].[dF]}$PEPTIDE1,PEPTIDE1,6:R3-9:R3$$$V2.0
SMILES: CC(C)C[C@H](NC(=O)[C@H](CCCNC(=N)N)NC(=O)[C@@H]1CCCN1C(=O)[C@H](CCCNC(=N)N)NC(=O)[C@@H]1CCC(=O)N1)C(=O)N[C@@H]1CSSC[C@@H](C(=O)N2CCC[C@H]2C(=O)N[C@H](Cc2ccccc2)C(=O)N[C@H](C)C(=O)N[C@H](Cc2ccccc2)C(=O)O)NC(=O)[C@H](CCCCN)NC(=O)[C@H](Cc2c[nH]cn2)NC1=O
B6: Example 4: pE-R-c*-R-L-C*-H-K-G-P-f-a-f-OH (Disulfide C3-C6) (peptide)
peptide: ERCRLCHKGPFAF
HELM: PEPTIDE1{[Glp].R.[dC].R.L.C.H.K.G.P.[dF].[dA].[dF]}$PEPTIDE1,PEPTIDE1,3:R3-6:R3$$$V2.0
SMILES: CC(C)C[C@@H]1NC(=O)[C@H](CCCNC(=N)N)NC(=O)[C@H](NC(=O)[C@H](CCCNC(=N)N)NC(=O)[C@@H]2CCC(=O)N2)CSSC[C@@H](C(=O)N[C@@H](Cc2c[nH]cn2)C(=O)N[C@@H](CCCCN)C(=O)NCC(=O)N2CCC[C@H]2C(=O)N[C@H](Cc2ccccc2)C(=O)N[C@H](C)C(=O)N[C@H](Cc2ccccc2)C(=O)O)NC1=O
B7: Example 8: pE-R-P-R-L-C*-H-K-G-P-Nle-P-C*-OH (peptide)
peptide: ERPRLCHKGPLPC
HELM: PEPTIDE1{[Glp].R.P.R.L.C.H.K.G.P.[Nle].P.C}$PEPTIDE1,PEPTIDE1,6:R3-13:R3$$$V2.0
SMILES: CCCC[C@@H]1NC(=O)[C@@H]2CCCN2C(=O)CNC(=O)[C@H](CCCCN)NC(=O)[C@H](Cc2c[nH]cn2)NC(=O)[C@@H](NC(=O)[C@H](CC(C)C)NC(=O)[C@H](CCCNC(=N)N)NC(=O)[C@@H]2CCCN2C(=O)[C@H](CCCNC(=N)N)NC(=O)[C@@H]2CCC(=O)N2)CSSC[C@@H](C(=O)O)NC(=O)[C@@H]2CCCN2C1=O

molecular target: T1, human APJ receptor (hAPJ); experiment: cell-based or functional assay; conditions: not given

First: B1
Second: B2
The “hAPJ Ca^2+ Flux EC50” value of the first is 2-fold higher: 6.9 nM for the first, 3.5 nM for the second.

Going from [pGlu]RCRLCHKGP[dNle]-{NH‑phenethyl} (disulfide 3-6) [Example 3: pE-R-C*-R-L-C*-H-K-G-P-(D-Nle)-NH(Phenethyl) (Disulfide C3-C6)] to B3, the “hAPJ Ca^2+ Flux EC50” value falls from 871 nM to 9.7 nM (90-fold).

First: B4
Second: B5
The “hAPJ Ca^2+ Flux EC50” value of the first is 6.3-fold higher: 77 nM for the first, 12.3 nM for the second.

First: B6
Second: B7
The “hAPJ Ca^2+ Flux EC50” value of the first is 11-fold higher: 496 nM for the first, 43.7 nM for the second.

test system: not listed separately; experiment: in vitro; conditions: rat, plasma
Experimental: The calcium flux protocol described above was followed, with the following changes. The peptides were also incubated with 5% rat plasma (Bioreclamation # [sequence]-M, Na Heparin-treated). Readings were taken at time points t0 and t24 hrs, after incubation in a 37° C. tissue culture incubator. Peptide plasma half-life in minutes was estimated by calculating the following: • 1) LN((EC50 at t0)/(EC50 at t24 hrs)), • 2) Calculate slope of value above and • 3) t112=0.693/(slope^2).

Going from `CC(C)C[C@H](NC(=O)[C@H](CCCNC(=N)N)NC(=O)[C@@H]1CCCN1C(=O)[C@H](CCCNC(=N)N)NC(=O)[C@@H]1CCC(=O)N1)C(=O)N[C@@H]1CSSC[C@@H](C(=O)N2CCC[C@H]2C(=O)N[C@H](Cc2ccccc2)C(=O)N[C@H](C)C(=O)N[C@H](Cc2ccccc2)C(=O)O)NC(=O)[C@H](CCCCN)NC(=O)[C@H](Cc2c[nH]cn2)NC1=O` [Example 6, pE-R-P-R-L-c*-H-K-C*-P-f-a-f-OH] (HELM PEPTIDE1{[Glp].R.P.R.L.[dC].H.K.C.P.[dF].[dA].[dF]}$PEPTIDE1,PEPTIDE1,6:R3-9:R3$$$V2.0) to `CC(C)C[C@@H]1NC(=O)[C@H](CCCNC(=N)N)NC(=O)[C@H](NC(=O)[C@H](CCCNC(=N)N)NC(=O)[C@@H]2CCC(=O)N2)CSSC[C@@H](C(=O)N[C@@H](Cc2c[nH]cn2)C(=O)N[C@@H](CCCCN)C(=O)NCC(=O)N2CCC[C@H]2C(=O)N[C@H](Cc2ccccc2)C(=O)N[C@H](C)C(=O)N[C@H](Cc2ccccc2)C(=O)O)NC1=O` [Example 4, pE-R-c*-R-L-C*-H-K-G-P-f-a-f-OH] (HELM PEPTIDE1{[Glp].R.[dC].R.L.C.H.K.G.P.[dF].[dA].[dF]}$PEPTIDE1,PEPTIDE1,3:R3-6:R3$$$V2.0), the half-life rises from 50 min to 86 min (1.7-fold).

First: CCCC[C@@H](NC(=O)[C@@H]1CCCN1C(=O)CNC(=O)[C@H](CCCCN)NC(=O)[C@H](Cc1c[nH]cn1)NC(=O)[C@@H]1CSSC[C@H](NC(=O)[C@H](CCCNC(=N)N)NC(=O)[C@@H]2CCC(=O)N2)C(=O)N[C@@H](CCCNC(=N)N)C(=O)N[C@@H](CC(C)C)C(=O)N1)C(=O)NCCc1ccccc1 [Example 3, pE-R-C*-R-L-C*-H-K-G-P-(D-Nle)-NH(Phenethyl)] (HELM PEPTIDE1{[Glp].R.C.R.L.C.H.K.G.P.[CCCC[C@@H](N[*:1])C(=O)[*:2]].[c1ccc(CCN[*:1])cc1]}$PEPTIDE1,PEPTIDE1,3:R3-6:R3$$$V2.0)
Second: CCCC[C@@H](NC(=O)[C@@H]1CCCN1C(=O)CNC(=O)[C@H](CCCCN)NC(=O)[C@H](Cc1c[nH]cn1)NC(=O)[C@@H]1CSSC[C@H](NC(=O)[C@H](CCCNC(=N)N)NC(=O)[C@@H]2CCC(=O)N2)C(=O)N[C@@H](CCCNC(=N)N)C(=O)N[C@@H](CC(C)C)C(=O)N1)C(=O)N[C@H](C)C(=O)N[C@H](Cc1ccccc1)C(=O)O [Example 2, pE-R-C*-R-L-C*-H-K-G-P-(D-Nle)-a-f-OH] (HELM PEPTIDE1{[Glp].R.C.R.L.C.H.K.G.P.[CCCC[C@@H](N[*:1])C(=O)[*:2]].[dA].[dF]}$PEPTIDE1,PEPTIDE1,3:R3-6:R3$$$V2.0)
The half-life of the first is 5.3-fold higher: 1200 min for the first, 225 min for the second.

Compared with `CCCC[C@H](NC(=O)[C@@H]1CCCN1C(=O)CNC(=O)[C@H](CCCCN)NC(=O)[C@H](Cc1c[nH]cn1)NC(=O)[C@@H]1CSSC[C@H](NC(=O)[C@H](CCCNC(=N)N)NC(=O)[C@@H]2CCC(=O)N2)C(=O)N[C@@H](CCCNC(=N)N)C(=O)N[C@@H](CC(C)C)C(=O)N1)C(=O)N1CCC[C@H]1C(=O)N[C@@H](Cc1ccccc1)C(=O)O` [Example 1, pE-R-C*-R-L-C*-H-K-G-P-Nle-P-F-OH] (HELM PEPTIDE1{[Glp].R.C.R.L.C.H.K.G.P.[Nle].P.F}$PEPTIDE1,PEPTIDE1,3:R3-6:R3$$$V2.0), `CCCC[C@H](NC(=O)[C@@H]1CCCN1C(=O)[C@@H]1CSSC[C@H](NC(=O)[C@H](CC(C)C)NC(=O)[C@H](CCCNC(=N)N)NC(=O)[C@@H]2CCCN2C(=O)[C@H](CCCNC(=N)N)NC(=O)[C@@H]2CCC(=O)N2)C(=O)N[C@@H](Cc2c[nH]cn2)C(=O)N[C@@H](CCCCN)C(=O)N1)C(=O)N1CCC[C@H]1C(=O)N[C@@H](Cc1ccccc1)C(=O)O` [Example 5, pE-R-P-R-L-C*-H-K-C*-P-Nle-P-F-OH] (HELM PEPTIDE1{[Glp].R.P.R.L.C.H.K.C.P.[Nle].P.F}$PEPTIDE1,PEPTIDE1,6:R3-9:R3$$$V2.0) is 4-fold higher in half-life: 4 min for the first, 16 min for the second.

Molecule `CCCC[C@@H](NC(=O)[C@@H]1CCCN1C(=O)[C@@H]1CSSCC[C@@H](NC(=O)[C@H](CC(C)C)NC(=O)[C@H](CCCNC(=N)N)NC(=O)[C@@H]2CCCN2C(=O)[C@H](CCCNC(=N)N)NC(=O)[C@@H]2CCC(=O)N2)C(=O)N[C@@H](Cc2c[nH]cn2)C(=O)N[C@@H](CCCCN)C(=O)N1)C(=O)N1CCC[C@@H]1C(=O)N[C@H](Cc1ccccc1)C(=O)O` [Example 7, pE-R-P-R-L-(D-hC)*-H-K-C*-P-(D-Nle)-p-f-OH] (HELM PEPTIDE1{[Glp].R.P.R.L.[O=C([C@@H](CCS[*:3])N[*:1])[*:2]].H.K.C.P.[CCCC[C@@H](N[*:1])C(=O)[*:2]].[dP].[dF]}$PEPTIDE1,PEPTIDE1,6:R3-9:R3$$$V2.0) has a half-life of 52 min.
